# Test results reported in patent US20240084041A1 (Regeneron, published 2024).
# T1: MET on EBC-1 cells (human, UniProt P08581 25-1390)
# T1 chain: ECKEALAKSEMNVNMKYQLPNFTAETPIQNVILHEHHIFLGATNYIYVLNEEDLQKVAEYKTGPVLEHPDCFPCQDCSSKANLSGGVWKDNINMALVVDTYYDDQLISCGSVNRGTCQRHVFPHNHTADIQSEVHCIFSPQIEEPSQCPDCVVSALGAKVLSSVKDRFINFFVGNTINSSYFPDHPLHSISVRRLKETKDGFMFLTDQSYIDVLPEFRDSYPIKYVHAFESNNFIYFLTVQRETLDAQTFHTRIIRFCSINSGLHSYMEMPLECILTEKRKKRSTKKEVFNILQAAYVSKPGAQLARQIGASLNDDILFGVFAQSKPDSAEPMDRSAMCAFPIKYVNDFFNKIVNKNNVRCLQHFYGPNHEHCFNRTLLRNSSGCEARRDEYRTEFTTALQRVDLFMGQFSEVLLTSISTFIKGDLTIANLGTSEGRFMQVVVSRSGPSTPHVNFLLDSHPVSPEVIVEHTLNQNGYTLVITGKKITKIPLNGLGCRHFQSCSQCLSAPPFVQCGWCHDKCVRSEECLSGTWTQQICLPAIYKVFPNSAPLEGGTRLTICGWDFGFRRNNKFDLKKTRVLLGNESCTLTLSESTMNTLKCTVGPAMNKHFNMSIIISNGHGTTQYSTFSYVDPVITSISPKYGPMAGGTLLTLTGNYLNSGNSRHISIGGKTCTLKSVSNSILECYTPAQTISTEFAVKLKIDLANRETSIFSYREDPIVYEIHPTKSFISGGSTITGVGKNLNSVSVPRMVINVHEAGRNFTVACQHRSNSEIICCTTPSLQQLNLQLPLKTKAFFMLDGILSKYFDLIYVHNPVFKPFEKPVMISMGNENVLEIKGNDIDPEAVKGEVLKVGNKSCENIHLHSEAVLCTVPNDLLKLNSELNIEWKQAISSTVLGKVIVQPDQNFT
# Legend:
# Assay in all cases: cell-based or functional assay
# [1] = target: T2, MET on NCI-H596 cells (MET exon14 skip mutation) (human, UniProt P08581 25-1390)
# [2] = target: T2, MET on NCI-H596 cells (MET exon14 skip …); remark: listed apart in the source
# [3] = target: T1, MET on EBC-1 cells
Binder,"Relative MET Level (immunoblot, 18 hours, 5 µg/ml, NCI-H596) [1]","Relative Cell Growth (n = 3), NCI-H596 in soft agar, 5 µg/ml, two weeks [2]","Relative Cell Growth (n = 3), EBC-1, 0.1 µg/mL, 5 days [3]","Relative Cell Growth (n = 3), EBC-1, 1 µg/mL, 5 days [3]"
"H4H13306P2 (antibody, V domains shown) VH: EVQLVESGGGLVQPGTSLRLSCAASGFTFDDYAMHWVRQAPGKGLEWVSGITWNSYNIDYADSVKGRFTISRDNAKNSLYLQMNSLRAEDTALYYCAKDDDYSNYVYFDYWGQGTLVTVSS VL: not shown",0.5 relative to hFc control,2.96 relative to control (no treatment),–,–
"H4H14639D Bispecific Antibody (bispecific antibody, V domains shown) VH 1: EVQLVESGGGLVQPGTSLRLSCAASGFTFDDYAMHWVRQAPGKGLEWVSGITWNSYNIDYADSVKGRFTISRDNAKNSLYLQMNSLRAEDTALYYCAKDDDYSNYVYFDYWGQGTLVTVSS VH 2: EVQLVESGGGLVQPGGSLRLSCAASGFIVTTNYMTWLRQAPGKGLEWVSLIYSSGHTYYADSVKGRFTISRHNSKNTLYLQMDSLRAEDTAVYYCASAFAADVFDIWGQGTMVTVSS VL: not shown",0.24 relative to hFc control,1.07 relative to control (no treatment),0.397 relative to control,0.462 relative to control
"H4H13312P2 (antibody, V domains shown) VH: EVQLVESGGGLVQPGGSLRLSCAASGFIVTTNYMTWLRQAPGKGLEWVSLIYSSGHTYYADSVKGRFTISRHNSKNTLYLQMDSLRAEDTAVYYCASAFAADVFDIWGQGTMVTVSS VL: not shown",0.35 relative to hFc control,1.69 relative to control (no treatment),–,–
